One block for each binder: values may come before it.
Legend:
[1] = target: T1, human FcRH5 protein fragment (soluble) (human, UniProt Q96RD9 16-851); assay: SPR (BIACORE), antibody as ligand, HuFcRH5 as sample in stepwise injections, 25 °C, 1:1 binding model
T1 construct: whole entry named; also called soluble human FcRH5; Human FcRH5 (BIACORE analyte)
T1 sequence: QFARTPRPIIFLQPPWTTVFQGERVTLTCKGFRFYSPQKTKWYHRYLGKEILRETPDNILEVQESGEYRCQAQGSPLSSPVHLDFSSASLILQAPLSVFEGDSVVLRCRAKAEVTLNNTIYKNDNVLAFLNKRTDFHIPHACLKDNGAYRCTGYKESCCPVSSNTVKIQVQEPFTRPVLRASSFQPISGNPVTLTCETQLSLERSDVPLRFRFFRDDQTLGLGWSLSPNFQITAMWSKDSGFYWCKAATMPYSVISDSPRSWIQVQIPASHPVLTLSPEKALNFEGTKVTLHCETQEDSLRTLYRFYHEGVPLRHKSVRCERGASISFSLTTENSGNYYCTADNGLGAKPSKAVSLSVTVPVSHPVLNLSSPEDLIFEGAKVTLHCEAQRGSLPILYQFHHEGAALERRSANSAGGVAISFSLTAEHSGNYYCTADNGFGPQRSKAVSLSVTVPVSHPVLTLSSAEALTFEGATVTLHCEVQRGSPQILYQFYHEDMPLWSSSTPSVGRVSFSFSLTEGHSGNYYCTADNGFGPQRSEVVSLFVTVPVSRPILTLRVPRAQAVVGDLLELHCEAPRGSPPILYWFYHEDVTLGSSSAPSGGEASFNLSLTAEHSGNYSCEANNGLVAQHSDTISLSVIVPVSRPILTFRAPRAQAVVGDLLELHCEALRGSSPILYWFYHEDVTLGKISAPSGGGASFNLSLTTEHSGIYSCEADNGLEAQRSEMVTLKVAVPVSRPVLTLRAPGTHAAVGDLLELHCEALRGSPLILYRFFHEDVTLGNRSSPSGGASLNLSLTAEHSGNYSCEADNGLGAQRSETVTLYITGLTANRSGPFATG

human CD3ε [2] = target: T2, human CD3ε (human, UniProt P07766 23-126, limits assumed); assay: ELISA on CD3
T2 construct: also called hCD3ε
T2 sequence (P07766 23-126 limits assumed): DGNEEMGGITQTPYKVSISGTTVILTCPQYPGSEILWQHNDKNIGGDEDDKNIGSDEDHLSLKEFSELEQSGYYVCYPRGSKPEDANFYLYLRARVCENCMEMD

[3] = target: T1, human FcRH5 protein fragment (soluble); assay: ELISA on FcRH5 (form of the coated FcRH5 not given)
human CD3ε [4] = target: T2, human CD3ε; assay: assay not stated
human CD3ε [5] = target: T2, human CD3ε; assay: BIACORE, monovalent
[6] = target: T3, human FcRH1 (full-length, on SVT2 cells) (human, UniProt Q96LA6 17-429); assay: FACS, SVT2 cells
T3 construct: whole, on cells; also called SVT2-FcRH1
T3 sequence (looked up): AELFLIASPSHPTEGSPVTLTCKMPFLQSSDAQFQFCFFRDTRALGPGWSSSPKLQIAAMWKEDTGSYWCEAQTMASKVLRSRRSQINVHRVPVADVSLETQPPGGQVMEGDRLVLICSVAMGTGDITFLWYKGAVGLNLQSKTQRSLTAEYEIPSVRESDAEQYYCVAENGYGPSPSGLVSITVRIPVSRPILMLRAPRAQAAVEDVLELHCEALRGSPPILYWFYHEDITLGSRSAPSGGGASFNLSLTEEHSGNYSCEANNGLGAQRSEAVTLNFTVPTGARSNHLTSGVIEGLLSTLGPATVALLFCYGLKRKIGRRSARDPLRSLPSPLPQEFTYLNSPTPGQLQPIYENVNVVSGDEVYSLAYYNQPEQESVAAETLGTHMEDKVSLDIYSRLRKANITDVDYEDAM
Protocol: (§1) Human FcRH5, cyno FcRH5, human FcRH1, FcRH2, FcRH3, and FcRH4 transfected mouse SVT2 cells were used to test binding and cross-reactivity of FcRH5 TDBs. The method was carried out as follows. Cultured SVT2 cells were lifted using non-enzyme cell dissociation buffer (Sigma, #C5914). 1×10⁵ cells were suspended in 100 μL and incubated with FcRH5 TDBs at 3 μg/ml. […] Cells were washed twice with FACS buffer before flow cytometry analysis was carried out on a FACSCalibur.

[7] = target: T4, human FcRH4 (full-length, on SVT2 cells) (human, UniProt Q96PJ5 20-515); assay: FACS, SVT2 cells
T4 construct: whole, on cells; also called SVT2-FcRH4
T4 sequence (looked up): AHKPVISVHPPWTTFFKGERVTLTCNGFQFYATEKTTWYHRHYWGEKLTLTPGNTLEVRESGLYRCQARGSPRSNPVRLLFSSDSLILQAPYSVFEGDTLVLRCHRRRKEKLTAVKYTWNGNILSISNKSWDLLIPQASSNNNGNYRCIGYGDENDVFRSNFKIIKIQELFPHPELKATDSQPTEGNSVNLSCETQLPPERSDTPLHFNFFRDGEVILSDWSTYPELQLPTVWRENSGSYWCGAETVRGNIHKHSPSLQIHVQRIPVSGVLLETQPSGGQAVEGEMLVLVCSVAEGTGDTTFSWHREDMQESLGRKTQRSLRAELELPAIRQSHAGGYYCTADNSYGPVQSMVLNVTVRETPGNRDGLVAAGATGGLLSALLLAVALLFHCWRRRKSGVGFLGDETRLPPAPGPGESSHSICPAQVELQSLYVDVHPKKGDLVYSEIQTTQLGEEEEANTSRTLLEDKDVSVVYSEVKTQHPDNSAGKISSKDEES
Protocol: as §1

[8] = target: T1, human FcRH5 protein fragment (soluble); assay: BIACORE, TDB format

B2: bis-Fab B (bispecific antibody, V domains shown)
VH 1: EVQLVESGPGLVKPSETLSLTCTVSGFSLTRFGVHWVRQPPGKGLEWLGVIWRGGSTDYNAAFVSRLTISKDNSKNQVSLKLSSVTAADTAVYYCSNHYYGSSDYALDNWGQGTLVTVSS
VL 1: DIQMTQSPSSLSASVGDRVTITCKASQDVRNLVVWFQQKPGKAPKLLIYSGSYRYSGVPSRFSGSGSGTDFTLTISSLQPEDFATYYCQQHYSPPYTFGQGTKVEIK
VH 2: EVQLVQSGAEVKKPGASVKVSCKASGFTFTSYYIHWVRQAPGQGLEWIGWIYPENDNTKYNEKFKDRVTITADTSTSTAYLELSSLRSEDTAVYYCARDGYSRYYFDYWGQGTLVTVSS
VL 2: DIVMTQSPDSLAVSLGERATICCKSSQSLLNSRTRKNYLAWYQQKPGQSPKLLIYWTSTRKSGVPDRFSGSGSGTDFTLTISSLQAEDVAVYYCKQSFILRTFGQGTKVEIK
notes: bis-Fab: 1G7.v85 Fab (HC A114C, constant part) crosslinked to 38E4.v1 Fab (LC N22C)
EC50 (read off the curve) (human CD3ε [2]): ~7 ng/mL | EC50 (read off the curve) [3]: ~10 ng/mL

B3: 40G5c (antibody, V domains shown)
VH: EVQLVQSGAEVKKPGASVKVSCKASGYTFTNYYIHWVRQAPGQGLEWIGWIYPGDGNTKYNEKFKGRATLTADTSTSTAYLELSSLRSEDTAVYYCARDSYSNYYFDYWGQGTLVTVSS
VL: DIVMTQSPDSLAVSLGERATINCKSSQSLLNSRTRKNYLAWYQQKPGQPPKLLIYWASTRESGVPDRFSGSGSGTDFTLTISSLQAEDVAVYYCTQSFILRTFGQGTKVEIK
notes: humanized anti-CD3ε; also called hu40G5c
EC50 (human CD3ε [4]): 13 nM | Kd (human CD3ε [5]): 51 nM

B4: 38E4.v1 (antibody, V domains shown)
VH: EVQLVQSGAEVKKPGASVKVSCKASGFTFTSYYIHWVRQAPGQGLEWIGWIYPENDNTKYNEKFKDRVTITADTSTSTAYLELSSLRSEDTAVYYCARDGYSRYYFDYWGQGTLVTVSS
VL: DIVMTQSPDSLAVSLGERATINCKSSQSLLNSRTRKNYLAWYQQKPGQSPKLLIYWTSTRKSGVPDRFSGSGSGTDFTLTISSLQAEDVAVYYCKQSFILRTFGQGTKVEIK
notes: humanized anti-CD3ε; also called anti-CD3 arm 38E4.v1
EC50 (human CD3ε [4]): 1 nM | Kd (human CD3ε [5]): 0.5 nM

B5: F(ab′)2 A (bispecific antibody, V domains shown)
VH 1: EVQLVESGPGLVKPSETLSLTCTVSGFSLTRFGVHWVRQPPGKGLEWLGVIWRGGSTDYNAAFVSRLTISKDNSKNQVSLKLSSVTAADTAVYYCSNHYYGSSDYALDNWGQGTLVTVSS
VL 1: DIQMTQSPSSLSASVGDRVTITCKASQDVRNLVVWFQQKPGKAPKLLIYSGSYRYSGVPSRFSGSGSGTDFTLTISSLQPEDFATYYCQQHYSPPYTFGQGTKVEIK
VH 2: EVQLVQSGAEVKKPGASVKVSCKASGFTFTSYYIHWVRQAPGQGLEWIGWIYPENDNTKYNEKFKDRVTITADTSTSTAYLELSSLRSEDTAVYYCARDGYSRYYFDYWGQGTLVTVSS
VL 2: DIVMTQSPDSLAVSLGERATINCKSSQSLLNSRTRKNYLAWYQQKPGQSPKLLIYWTSTRKSGVPDRFSGSGSGTDFTLTISSLQAEDVAVYYCKQSFILRTFGQGTKVEIK
EC50 (read off the curve) (human CD3ε [2]): ~0.7 ng/mL | EC50 (read off the curve) [3]: ~50 ng/mL

B7: 38E4.v11 (antibody, V domains shown)
VH: EVQLVQSGAEVKKPGASVKVSCKASGFTFTSYYIHWVRQAPGQGLEWIGWIYPENDNTKYNEKFKDRVTITADTSTSTAYLELSSLRSEDTAVYYCARDGYSRYYFDYWGQGTLVTVSS
VL: DIVMTQSPDSLAVSLGERATINCKSSQSLLNSRTRKNYLAWYQQKPGQSPKLLIYWTSTRKSGVPDRFSGSGSGTDFTLTISSLQAEDVAVYYCTQSFILRTFGQGTKVEIK
notes: humanized anti-CD3ε
EC50 (human CD3ε [4]): 0.05 nM

Now from value to binder:

koff [1]: 0.00136 s⁻¹ | kon [1]: 1.08e+06 M⁻¹ s⁻¹
B1: h7D8.L1H2 (antibody)
heavy chain: EVQLVESGGGLVQPGGSLRLSCAVSGIDLSSYAMGWVRQAPGKGLEWIGTIGTGGTPYYASWAKGRFTISKDSSKNTVYLQMNSLRAEDTAVYFCARDMYTGSIYYDMWGQGTLVTVSS
light chain: DAQLTQSPSSLSASVGDRVTITCQSSQSVFNNAQLSWYQQKPGKPPKLLIYDTSNLASGVPSRFSGSGSGTDFTLTISSLQPEDFATYYCLGAYTDDADNAFGQGTKVEIK
notes: humanized, rabbit-derived anti-FcRH5 antibody; The sheet prints h7D8.L1H2* with an unexplained asterisk; also called hu7D8.L1H2; Hu7D8.L1H2

binding result [6]: no binding (tested: 3 µg/ml) | binding result [7]: no binding (tested: 3 µg/ml) | Kd [8]: 0.6 nM
B6: hu1G7.v1.7/38E4.v1 TDB (bispecific antibody, V domains shown)
VH 1: EVQLVESGPGLVKPSETLSLTCTVSGFSTTRFGVHWVRQPPGKGLEWLGVIWRGGSTDYNAAFMSRLTISKDNSKNQVSLKLSSVTAADTAVYYCSNHYYGSSDYALDNWGQGTLVTVSS
VL 1: DIQMTQSPSSLSASVGDRVTITCKASQDVRNLVVWFQQKPGKAPKLLIYSGYYRYTGVPSRFSGSGSGTDFTLTISSLQPEDFATYYCQQHYQPPYTFGQGTKVEIK
VH 2: EVQLVQSGAEVKKPGASVKVSCKASGFTFTSYYIHWVRQAPGQGLEWIGWIYPENDNTKYNEKFKDRVTITADTSTSTAYLELSSLRSEDTAVYYCARDGYSRYYFDYWGQGTLVTVSS
VL 2: DIVMTQSPDSLAVSLGERATINCKSSQSLLNSRTRKNYLAWYQQKPGQSPKLLIYWTSTRKSGVPDRFSGSGSGTDFTLTISSLQAEDVAVYYCKQSFILRTFGQGTKVEIK
notes: knob-into-hole TDB; also called 1G7.v1.7 TDB

EC50 (read off the curve) (human CD3ε [2]): ~7 ng/mL | EC50 (read off the curve) [3]: ~10 ng/mL
B8: bis-Fab D (bispecific antibody, V domains shown)
VH 1: EVQLVESGPGLVKPSETLSLTCTVSGFSLTRFGVHWVRQPPGKGLEWLGVIWRGGSTDYNAAFVSRLTISKDNSKNQVSLKLSSVTAADTAVYYCSNHYYGSSDYALDNWGQGTLVTVSS
VL 1: DIQMTQSPSSLSASVGDRVTITCKASQDVRNLVVWFQQKPGKAPKLLIYSGSYRYSGVPSRFSGSGSGTDFTLTISSLQPEDFATYYCQQHYSPPYTFGQGTKVEIK
VH 2: EVQLVQSGAEVKKPGASVKVSCKASGFTFTSYYIHWVRQAPGQGLEWIGWIYPENDNTKYNEKFKDRVTITADTSTSTAYLELSSLRSEDTAVYYCARDGYSRYYFDYWGQGTLVTVSS
VL 2: DIVMTQSPDSLAVSLGERATICCKSSQSLLNSRTRKNYLAWYQQKPGQSPKLLIYWTSTRKSGVPDRFSGSGSGTDFTLTISSLQAEDVAVYYCKQSFILRTFGQGTKVEIK
notes: bis-Fab: 1G7.v85 Fab (LC A149C, constant part) crosslinked to 38E4.v1 Fab (LC N22C)

binding result [6]: no binding (tested: 3 µg/ml) | binding result [7]: no binding (tested: 3 µg/ml) | Kd [8]: 1.1 nM
B9: hu1G7.v1.5/38E4.v1 TDB (bispecific antibody, V domains shown)
VH 1: EVQLVESGPGLVKPSETLSLTCTVSGFSLTRFGVHWVRQPPGKGLEWLGVIWRGGSTDYNAAFMSRLTISKDNSKNQVSLKLSSVTAADTAVYYCSNHYYGSSDYALDNWGQGTLVTVSS
VL 1: DIQMTQSPSSLSASVGDRVTITCKASQDVSNIVVWFQQKPGKSPKLLIYSGYYRYTGVPSRFSGSGSGTDFTLTISSLQPEDFATYYCQQQFQPPYTFGQGTKVEIK
VH 2: EVQLVQSGAEVKKPGASVKVSCKASGFTFTSYYIHWVRQAPGQGLEWIGWIYPENDNTKYNEKFKDRVTITADTSTSTAYLELSSLRSEDTAVYYCARDGYSRYYFDYWGQGTLVTVSS
VL 2: DIVMTQSPDSLAVSLGERATINCKSSQSLLNSRTRKNYLAWYQQKPGQSPKLLIYWTSTRKSGVPDRFSGSGSGTDFTLTISSLQAEDVAVYYCKQSFILRTFGQGTKVEIK
notes: knob-into-hole TDB; also called 1G7.v1.5 TDB
